How the values were obtained:
[1] = Zinc binding of insulin analogs (dialysis against zinc-free neutral buffer, HPLC and atomic absorption spectroscopy); format: physicochemical; conditions: for Zinc binding: after extensive dialysis against zinc-free neutral buffer, pH 7.4; for zinc ions bound per hexamer: aqueous neutral solution, not removable by dialysis
Experimental: The dialyzates were then acidified and analyzed. The concentration of insulin was determined by reversed phase HPLC and that of the zinc by atomic absorption spectroscopy. The zinc values were corrected using the zinc content of a control batch which contained no insulin.

[2] = aqueous neutral solution, not removable by dialysis; cited from earlier work

Row | Substance | Zinc binding [1] | zinc ions bound per hexamer [1] | zinc ions complexed per hexamer via the His(B10) side chains [2]
1 | Asp(B3)-human insulin [Asp(B3)-insulin] | 4.2 mol of zinc/mol of hexamer | 4.2 zinc ions/hexamer | 
2 | His(B3)-human insulin [His(B3)-insulin] | 6.9 mol of zinc/mol of hexamer | approximately 7 zinc ions/hexamer | 
3 | human insulin [reference compound] | 2.5 mol of zinc/mol of hexamer |  | two

— patent US6686177B1, “Insulin analogs with enhanced zinc binding” (Aventis Pharma Deutschland GmbH, priority 1998, dated 2004)
